Results published in PMC9482650, “Quantitative fragmentomics allow affinity mapping of interactomes” (Nature Communications, 2022).

T1: CARD11, Q9BXL7
T1 sequence (Q9BXL7 662-765, limits assumed, looked up): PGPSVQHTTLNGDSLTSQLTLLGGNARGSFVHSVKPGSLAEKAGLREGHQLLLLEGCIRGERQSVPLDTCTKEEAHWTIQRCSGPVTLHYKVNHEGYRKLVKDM

T2: DFNB31_1, Q9P202
T2 sequence (Q9P202 135-233, limits assumed, looked up): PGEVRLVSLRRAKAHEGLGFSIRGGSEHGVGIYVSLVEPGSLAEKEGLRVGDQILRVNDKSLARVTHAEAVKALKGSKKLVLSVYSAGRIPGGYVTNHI

T3: DFNB31_2, Q9P202
T3 sequence (Q9P202 274-371, limits assumed, looked up): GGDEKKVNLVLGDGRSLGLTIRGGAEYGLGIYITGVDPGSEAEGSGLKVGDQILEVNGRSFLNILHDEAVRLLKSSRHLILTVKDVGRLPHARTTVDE

T4: GRIP1_4, Q9Y3R0
T4 sequence (Q9Y3R0 467-571, limits assumed, looked up): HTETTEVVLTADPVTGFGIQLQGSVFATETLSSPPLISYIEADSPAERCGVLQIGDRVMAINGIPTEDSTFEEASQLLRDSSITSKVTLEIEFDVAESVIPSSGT

T5: LNX2_2, Q8N448
T5 sequence (Q8N448 334-432, limits assumed, looked up): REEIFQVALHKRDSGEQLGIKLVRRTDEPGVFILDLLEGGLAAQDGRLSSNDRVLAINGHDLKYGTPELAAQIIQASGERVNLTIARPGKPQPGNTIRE

T6: MPP2, Q14168
T6 sequence (Q14168 180-250, limits assumed, looked up): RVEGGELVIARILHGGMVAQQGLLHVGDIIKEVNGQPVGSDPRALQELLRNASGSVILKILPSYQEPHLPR

T7: PARD3B_1, Q8TEW8
T7 sequence (Q8TEW8 196-299, limits assumed, looked up): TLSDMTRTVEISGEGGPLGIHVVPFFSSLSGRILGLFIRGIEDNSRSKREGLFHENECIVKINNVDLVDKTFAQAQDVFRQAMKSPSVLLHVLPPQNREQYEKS

T8: PDZD7_3, Q9H5P4
T8 sequence (Q9H5P4 857-944, limits assumed, looked up): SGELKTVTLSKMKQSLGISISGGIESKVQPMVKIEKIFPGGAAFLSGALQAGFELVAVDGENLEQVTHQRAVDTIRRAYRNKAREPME

T9: PTPN13_1, Q12923
T9 sequence (Q12923 1088-1188, limits assumed, looked up): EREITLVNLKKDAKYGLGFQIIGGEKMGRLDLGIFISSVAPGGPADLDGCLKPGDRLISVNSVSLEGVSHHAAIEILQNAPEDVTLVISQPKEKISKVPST

T10: SHANK1, Q9Y566
T10 sequence (Q9Y566 658-767, limits assumed, looked up): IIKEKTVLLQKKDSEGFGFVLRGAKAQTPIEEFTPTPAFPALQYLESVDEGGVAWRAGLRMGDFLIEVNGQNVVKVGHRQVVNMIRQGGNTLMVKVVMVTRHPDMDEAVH

T11: SIPA1L2, Q9P2F8
T11 sequence (Q9P2F8 945-1036, limits assumed, looked up): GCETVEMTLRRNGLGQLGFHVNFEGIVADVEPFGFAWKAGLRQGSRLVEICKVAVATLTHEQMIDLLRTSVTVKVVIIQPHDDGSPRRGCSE

T12: SNTG2, Q9NY99
T12 sequence (Q9NY99 68-166, limits assumed, looked up): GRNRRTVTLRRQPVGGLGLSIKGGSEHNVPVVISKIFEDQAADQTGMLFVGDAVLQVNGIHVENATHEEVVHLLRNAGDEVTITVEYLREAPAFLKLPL


Assays:
Experiment in all cases: holdup assay
Parameters in all cases: key: below the threshold = too weak to quantify, mostly under pKd 3.1 to 4
Conditions in all cases: plain residues with an end cap or a label only (N-terminal biotin on a linker: ado-ado)
CARD11, Q9BXL7 = biological target: T1, CARD11, Q9BXL7
DFNB31_1, Q9P202 = biological target: T2, DFNB31_1, Q9P202
DFNB31_2, Q9P202 = biological target: T3, DFNB31_2, Q9P202
DLG4_1, P78352 = biological target: DLG4_1, P78352
GIPC2, Q8TF65 = biological target: GIPC2, Q8TF65
GRASP, Q7Z6J2 = biological target: GRASP, Q7Z6J2
GRID2IP_2, A4D2P6 = biological target: GRID2IP_2, A4D2P6
GRIP1_4, Q9Y3R0 = biological target: T4, GRIP1_4, Q9Y3R0
IL16_1, Q14005 = biological target: IL16_1, Q14005
Inadl_9, Q8NI35 = biological target: Inadl_9, Q8NI35
LDB3, O75112 = biological target: LDB3, O75112
LNX1_1, Q8TBB1 = biological target: LNX1_1, Q8TBB1
LNX2_2, Q8N448 = biological target: T5, LNX2_2, Q8N448
MAGI1_1, Q96QZ7 = biological target: MAGI1_1, Q96QZ7
MAGI2_6, Q86UL8 = biological target: MAGI2_6, Q86UL8
MPP2, Q14168 = biological target: T6, MPP2, Q14168
NHERF2_2, Q15599 = biological target: NHERF2_2, Q15599
NHERF4_1, Q86UT5-2 = biological target: NHERF4_1, Q86UT5-2
PARD3B_1, Q8TEW8 = biological target: T7, PARD3B_1, Q8TEW8
PDZD7_3, Q9H5P4 = biological target: T8, PDZD7_3, Q9H5P4
PTPN13_1, Q12923 = biological target: T9, PTPN13_1, Q12923
SCRIB_3, Q14160 = biological target: SCRIB_3, Q14160
SHANK1, Q9Y566 = biological target: T10, SHANK1, Q9Y566
SIPA1L2, Q9P2F8 = biological target: T11, SIPA1L2, Q9P2F8
SNTG2, Q9NY99 = biological target: T12, SNTG2, Q9NY99

Sequence of LNX1_1, Q8TBB1 (Q8TBB1 261-371): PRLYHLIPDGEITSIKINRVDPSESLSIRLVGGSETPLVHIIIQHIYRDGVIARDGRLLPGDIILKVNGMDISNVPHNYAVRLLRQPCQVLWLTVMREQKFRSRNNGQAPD
Sequence of NHERF2_2, Q15599 (Q15599 142-238): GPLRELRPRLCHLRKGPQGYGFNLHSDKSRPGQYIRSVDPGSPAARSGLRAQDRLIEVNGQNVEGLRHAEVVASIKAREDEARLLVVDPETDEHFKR
Sequence of MAGI2_6, Q86UL8 (Q86UL8 1141-1229): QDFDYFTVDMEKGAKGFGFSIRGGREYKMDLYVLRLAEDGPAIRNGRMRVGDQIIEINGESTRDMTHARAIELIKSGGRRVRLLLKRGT
Sequence of Inadl_9, Q8NI35 (Q8NI35 1530-1615): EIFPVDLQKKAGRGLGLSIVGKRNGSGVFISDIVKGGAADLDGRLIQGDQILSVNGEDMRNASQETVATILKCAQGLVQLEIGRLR
Sequence of GRASP, Q7Z6J2 (Q7Z6J2 96-193): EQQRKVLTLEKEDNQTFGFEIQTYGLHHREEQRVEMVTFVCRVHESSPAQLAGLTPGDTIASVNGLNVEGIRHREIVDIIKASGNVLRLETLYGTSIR
Sequence of GIPC2, Q8TF65 (Q8TF65 112-203): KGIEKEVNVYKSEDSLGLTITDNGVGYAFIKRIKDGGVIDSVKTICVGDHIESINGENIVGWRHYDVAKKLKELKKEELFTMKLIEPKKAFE
Sequence of SCRIB_3, Q14160 (Q14160 999-1103): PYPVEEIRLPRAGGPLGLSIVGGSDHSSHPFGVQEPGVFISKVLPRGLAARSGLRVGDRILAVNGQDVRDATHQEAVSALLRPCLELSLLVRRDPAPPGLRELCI
Sequence of IL16_1, Q14005 (Q14005 210-306): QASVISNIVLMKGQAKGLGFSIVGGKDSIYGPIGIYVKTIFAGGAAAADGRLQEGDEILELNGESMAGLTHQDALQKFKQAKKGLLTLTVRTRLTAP
Sequence of DLG4_1, P78352 (P78352 62-152): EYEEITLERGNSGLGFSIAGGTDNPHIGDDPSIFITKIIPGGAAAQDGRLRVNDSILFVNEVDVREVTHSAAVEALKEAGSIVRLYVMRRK
Sequence of MAGI1_1, Q96QZ7 (Q96QZ7 1-106): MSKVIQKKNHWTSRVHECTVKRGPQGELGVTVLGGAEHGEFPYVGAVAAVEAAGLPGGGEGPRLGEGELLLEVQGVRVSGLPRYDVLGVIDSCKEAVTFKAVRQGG
Sequence of NHERF4_1, Q86UT5-2 (Q86UT5 other isoform, or with tags, fused parts or gaps): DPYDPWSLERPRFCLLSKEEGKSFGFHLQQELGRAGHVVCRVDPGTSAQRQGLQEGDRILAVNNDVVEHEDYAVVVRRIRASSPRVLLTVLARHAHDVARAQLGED
Sequence of GRID2IP_2, A4D2P6 (A4D2P6 272-370): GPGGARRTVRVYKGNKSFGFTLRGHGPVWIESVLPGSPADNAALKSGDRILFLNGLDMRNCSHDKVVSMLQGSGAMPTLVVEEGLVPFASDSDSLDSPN
Sequence of LDB3, O75112 (O75112 1-94): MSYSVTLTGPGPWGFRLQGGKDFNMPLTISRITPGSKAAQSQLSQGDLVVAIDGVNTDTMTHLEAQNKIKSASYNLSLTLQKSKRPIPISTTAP

Binder	pKd (CARD11, Q9BXL7)	pKd (DFNB31_1, Q9P202)	pKd (DFNB31_2, Q9P202)	pKd (DLG4_1, P78352)	pKd (GIPC2, Q8TF65)	pKd (GRASP, Q7Z6J2)	pKd (GRID2IP_2, A4D2P6)	pKd (GRIP1_4, Q9Y3R0)	pKd (IL16_1, Q14005)	pKd (Inadl_9, Q8NI35)	pKd (LDB3, O75112)	pKd (LNX1_1, Q8TBB1)	pKd (LNX2_2, Q8N448)	pKd (MAGI1_1, Q96QZ7)	pKd (MAGI2_6, Q86UL8)	pKd (MPP2, Q14168)	pKd (NHERF2_2, Q15599)	pKd (NHERF4_1, Q86UT5-2)	pKd (PARD3B_1, Q8TEW8)	pKd (PDZD7_3, Q9H5P4)	other results
DLLGGGSDSI [TNRC6B, Q9UPQ9]	below the threshold	below the threshold	below the threshold	below the threshold	3.55	below the threshold	below the threshold	below the threshold	below the threshold	below the threshold	below the threshold	3.76	below the threshold	below the threshold	below the threshold	below the threshold	below the threshold	3.63	below the threshold	below the threshold	pKd (PTPN13_1, Q12923): below the threshold; pKd (SCRIB_3, Q14160): below the threshold; pKd (SHANK1, Q9Y566): below the threshold; pKd (SIPA1L2, Q9P2F8): below the threshold; pKd (SNTG2, Q9NY99): below the threshold
TKEIPNCTSV [SORCS3, Q9UPU3]	below the threshold	4.06	below the threshold	4.26	3.83	4.74	4.29	below the threshold	below the threshold	3.7	below the threshold	3.75	4.52	below the threshold	4.43	below the threshold	3.94	4.2	below the threshold	4.82	pKd (PTPN13_1, Q12923): below the threshold; pKd (SCRIB_3, Q14160): 4.24; pKd (SHANK1, Q9Y566): 3.92; pKd (SIPA1L2, Q9P2F8): 3.49; pKd (SNTG2, Q9NY99): 3.84
NSTHNLKDYV [CLDN20, P56880]	below the threshold	below the threshold	below the threshold	below the threshold	below the threshold	3.47	below the threshold	below the threshold	below the threshold	3.66	below the threshold	below the threshold	4.12	below the threshold	below the threshold	below the threshold	below the threshold	3.69	below the threshold	below the threshold	pKd (PTPN13_1, Q12923): below the threshold; pKd (SCRIB_3, Q14160): below the threshold; pKd (SHANK1, Q9Y566): below the threshold; pKd (SIPA1L2, Q9P2F8): below the threshold; pKd (SNTG2, Q9NY99): below the threshold
GQNMTVSVVI [PRLHR, P49683]	below the threshold	below the threshold	below the threshold	below the threshold	below the threshold	below the threshold	below the threshold	below the threshold	3.81	below the threshold	below the threshold	3.47	5.11	4.22	below the threshold	below the threshold	3.69	3.64	4.86	4.4	pKd (PTPN13_1, Q12923): below the threshold; pKd (SCRIB_3, Q14160): 3.66; pKd (SHANK1, Q9Y566): below the threshold; pKd (SIPA1L2, Q9P2F8): 3.54; pKd (SNTG2, Q9NY99): below the threshold
